According to publication PMC8857057:

Target: Pab1 monomer (Saccharomyces cerevisiae, UniProt P04147 1-577)
Assay: fluorescence anisotropy

Chain of Pab1 monomer (P04147 whole entry): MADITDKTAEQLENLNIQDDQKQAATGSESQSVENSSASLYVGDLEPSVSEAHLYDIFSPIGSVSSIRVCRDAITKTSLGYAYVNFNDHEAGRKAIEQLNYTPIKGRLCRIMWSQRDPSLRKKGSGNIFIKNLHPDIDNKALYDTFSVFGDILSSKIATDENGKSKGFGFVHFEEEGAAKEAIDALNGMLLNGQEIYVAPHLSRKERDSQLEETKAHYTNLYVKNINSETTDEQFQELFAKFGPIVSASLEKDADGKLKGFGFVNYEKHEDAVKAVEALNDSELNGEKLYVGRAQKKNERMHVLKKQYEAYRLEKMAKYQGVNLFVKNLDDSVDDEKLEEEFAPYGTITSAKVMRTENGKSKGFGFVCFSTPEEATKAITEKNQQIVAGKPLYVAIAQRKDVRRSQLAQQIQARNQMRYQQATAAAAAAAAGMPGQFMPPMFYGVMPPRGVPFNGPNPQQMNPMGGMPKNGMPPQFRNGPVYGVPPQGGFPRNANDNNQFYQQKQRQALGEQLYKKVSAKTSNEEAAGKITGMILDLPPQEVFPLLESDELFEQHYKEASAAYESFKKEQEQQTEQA

B1: A19 RNA (ssRNA)
RNA: AAAAAAAAAAAAAAAAAAA
binding result: binds
